From the supplement of paper PMC9170038

These sequences were tested on MS2 coat protein (assay: apparent KD of MS2 coat protein; higher = weaker reporter binding). Settings: Eterna round: R107; input ligand: arginine 13.2 mM.
How it was run: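 The buffer was 100 mM Tris-HCl pH 7.5 with 80 mM KCl and 4 mM MgCl2, used without or with constant ligand. In it, RNA switches transcribed on-chip from Illumina sequencing clusters were titrated with SNAP-549-labelled MS2 coat protein in twofold steps from 0.7 or 1.5 nM to 3 µM. Apparent KD for each design is the median of its normalised cluster binding-curve fits.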

Sequence	apparent KD of MS2 coat protein [nM]
GGCACAUAGUCGGCCGCCACUACUAACACCUCAGACAACAUGAGGAUCACCCAUGUUCCAGAGUGUAGGACCGGGACUAUGUGCC [Minonka]	11.7
GGAUAGGACACGGCCGCCACUAGCUAGGAUACUAGCAACAUUUCCUCACCUGAGGAUCACCCUGGUAGGACCGGGUGUCCUAUCG	134
CAGGCUAGGACGGCCGCCACUGUGGCUACGGUACAUGAGGAUCACCCAUGUUUGUGGUUGAUCUACAGGACCGGGUCCUGACACG [Letisoonri]	22.2
CUCAUCCACGCGGCCGCCACUAUAUUGUGGUGUGGGUGUGACGUAUUACAUGAGGAUCACCCAUGUAGGACCGGGCGUGGAUGAG [Stork]	188
GGAUAGGACACGGCCGCCACUGCCUAGGAUACUAGCAACAUUUGGGUACAUGAGGAUCACCCAUGUAGGACCGGGUGUCCUAUCG	38.5
GCUGUACCAUGAAGGAGCGCUCACGCAGUUGCGGGUACAUGAGGAUCACCCAUGUUGGGUGAGCAGGUAGGUCGCAUGGUACAGC [SSAB #17]	227
GCCUCCAGCCGAAGGAGCGCUAGAAGGUGACAUGAGGAUCACCCAUGUGUGUGAUGUGGCUAGCAGGUAGGUCGCGGAGGAGGCA [Exclusion - Arginine B (Freestyle 22)]	53.7
UGGUACAUGGCGGCCGCCACUUCACGUAAAAUAAAAGCGUGAGGAUCACCCAUGCAAUAAGUUGGGAGGACCGGGUCAUGUACCU	311
AUAACAUGAGGAUCACCCAUGUAAGCAGAUACCAGCUAGGAAACUAGCCCUUGGCAGCUGCAAGGUGAUCCUAAUGCAGCUGCAA [(M1)-(M2)-(T1)-(T2)-(M)'-(T)'_Design3]	61.9
AAACGCCACGGAAGGAGCGACAUGAGGAUCACCCAUGUAGUUUUGGCGGAUGCACCCUCCUGUCAGGUAGGUCGCCGUGCGAUAA [XArg-B26]	32.6
AAAAUCCUACCUGAGGAUCACCCUGGUGAAGGAGCGCCCGAAAGGGCAGGUAGGUCGCACCUGAGGAUCACCCUGGUACCUAAAA [ArgAX 29 #DoubleMs2 #OpenEnded #AlternativeMS2]	82.6
CUUGGCUGUGCGGCCGCCACUGACUCAUCCUGCAUUACAUGAGGAUCACCCAUGUUGCGGCCUCCCAGGACCGGGCAUAGCCUGC [Veered]	102
UGGCAAGAGGGAAGGAGCGUCAGCUGAGUCACAUGAGGAUCACCCAUGUCGCACAUAGUGUGACAGGUAGGUCGCCCUCUACCCU [Rearian]	67.9
AUAACAUGAGGAUCACCCAUGUAAGCAGAUACCAGCUAGGAAACUAGCCCUUGGCAGCUGCAUUCCUCAUGUAGGUAUCUGCUAA [(M1)-(M2)-(T1)-(T2)-(M)'-(T)'_Design4]	18.4
UGGUGUAGGGUAAAUAGGAUUAGUACAGAAGGAGCGCGAAUAAACGCAGGUAGGUCGCUGGAAUACAUGAGGAUCACCCAUGUUC [Same State Arginine A GF 25]	22.6
GACAUGAGGAUCACCCAUGUACCGCGAGAAGGAGCGCGGAUAAACGCAGGUAGGUCGCUCGUGGGCUUUUAUUCAAUCGAAAGCU [Zaesar]	26.8
AAUUCCUCACAUGAGGAUCACCCAUGUGAAGGAGCGCCGAAUAAGGCAGGUAGGUCGCACAUGGAAACCGCUGCGAAAGCAGCAA [MAT - Exclusion Arginine A - Mod of Eli - D25]	21
GGGUAUGAUCCGGAUACCAGCGAACAUGAGGAUCACCCAUGUGACCUAAGAUAGGCUCUACGCCCUUGGCAGCCGCGAUCGCGUU [Same State Theophylline B GF8]	21.7
GUCCUCAGCCGAAGGAGCGCUAGAAGGUGACAUGAGGAUCACCCAUGUGUGUGAUGUGGCUAGCAGGUAGGUCGCGGAGAGGAUU [Exclusion - Arginine B (Freestyle 17)]	107

Sequence	apparent KD of MS2 coat protein [nM]
AAGCUGCCAAGAAGGUGAUCCAAAUGUGAUACCAGCUAGGAAACUAGCCCUUGGCAGCACAUGAGGAUCACCCAUGUAAUAAUAA [(T)'-(M)'-(T1)-(T2)-(M1)-(M2)_Design1_2/19/17]	37.7
CCUGCUACGGGAAACCGUAGCAGGAAUGAUACCAGUAGGAAAGACUACCCUUGGCAGCAUGGGAAACAUGAGGAUCACCCAUGUU [SSThA NP+V+V2 #7 Same Structure]	37.1
UUUGCACAUGAGGAUCACCCAUGUACAGAUACCAGCCUCAUCUACGGCCCUUGGCAGCUGAGAUAAUGGUGACGUGAUGGGCUUU [Edaniser]	13.5
AGUCUUGAACGAAGGAGCGACGUACAUGAGGAUCACCCAUGUGGGAGCGAAAGCUCCUAACGUCAGGUAGGUCGCGUUCGAGACA [Omei Arginine B SS A v1]	17.7
GUAAUUAUAAGAAGGAGCGUCGAAAAUGGGUAAACAUGAGGAUCACCCAUGUAAAGGGAACGACAGGUAGGUCGCUUAUGAUUAC [AstromonsSSArgB#22]	76.5
UGACAUUGCUCAGAUACCAGACAGGAGGAUCACUCCUGUGCCAACAAGUACAAAAUAAAUGUCCCUUGGCAGCUGAGCAAUGUCU [TheoBX 25 #MS2Left #AlternativeMS2 #Theo22]	32
UUGUUGUUUGGAAGGAGCGUGUAUGAUUUAGAACAUGAGGAUCACCCAUGUUGGAGGAUAGCACAGGUAGGUCGCCGGGUGGUGG [11.X]	16.2
UGUAUGUGAUUUGAUACCAGACCAGCGGGUGUUGCAUGAGGAUCACCCAUGUAGGUUUGGGUCCCUUGGCAGCAAAUCGCAUACU [SS Theo B #24 Ms18]	289
ACAAGUCCUCAUGAUACCAGCGAUGAGACAUAGUCUCAACAUGAGGAUCACCCAUGUAUUCGCCCUUGGCAGCAUACGGUUUUUG [Arleer]	85.1
GUAUUAACAAAAGUUGAUACAGUGGGUGAACGAGGACCGGUACGGCCGCCACUCGGACAUGAGGAUCACCCAUGUCCAUGUGAAA [AstrosExyTryA#12]	15.9
GUACAUGAGGAUCACCCAUGUAUAGUUGAAGGAGCGACCGGUGGGUCAGGUAGGUCGCAGCACAUGGCGUCAACCCGUGUAUGCC [#1 Exclusion - Arginine A Attempt #26 (Inspired by Pi)]	18.1
UAUAUAAUAACAGAUACCAGCGUGUUAUAAAACAUGAGGAUCACCCAUGUAGUGAUCAAGCGCCCUUGGCAGCUGGUAUUAUAUA [7.A]	123
AGACAUGAGGAUCACCCAUGUAGUACGGAUACCAGAUCCAGAUGCGUCCCUUGGCAGCUGUAGUACAGCGUUACAUCGCUCAUAG [Exclusion - Theophylline A (Freestyle 25)]	21
CGGGAACGAUAUGAUACCAGCCUGCGAAAGAAUGCUUAGUACAUGAGGAUCACCCAUGUAGGCCCUUGGCAGCAUCGACUCAAGU [theeternabot_exclusion_MS2_Theo_B_4]	13.1
CGCAACCCACAUGAGGAUCACCCAUGUGAAGGAGCGGCGAAUAAGCCAGGUAGGUCGCGCAUGAAUAAAUCAUGUAGGAAGCUAA [XArg-A 8 V1]	9.8
GAAGGAACCGGAAGGAGCGGGUCCUUAGCCACUACAUGAGGAUCACCCAUGUCCGGGAGGUCCCAGGUAGGUCGCCGGUCUUAAA [Gelece]	63.9
ACCUGUACGAAAAGUGCAGGACAUGAAUAACGAGGACCGGUACGGCCGCCACUCGGGUAAUAACCUGAGGAUCACCCGGGUCAUG [TrypAS 6 #AlternativeMS2 #Zipper #StaticStem]	111
CGGUACAUGAGGAUCACCCAUGUGUCGGAUACCAGAGAGCCGGCUCUCCCUUGGCAGCUGGUGCGACAUGAGGAUCACCCAUGUG [Exclusion Theophylline A GF19]	29.4
GCACGACAUGAGGAUCACCCAUGUGCAGAUACCAGUAGGAUAUCCUACCCUUGGCAGCUGAGUGGAUCCGGAGGACCAUGGGUAA [Same State Theophylline A GF8]	32.8

Same assay, conditions: Eterna round: R107; input ligand: none

Sequence	apparent KD of MS2 coat protein [nM]
GGAUAGGACACGGCCGCCACUAGCUAGGAUACUAGCAACAUUUCCUCACCUGAGGAUCACCCUGGUAGGACCGGGUGUCCUAUCG	353
